Laboratory results published in US20110053840A1 (MERCK SERONO S A, published 2011).

target: T1, HLA-DR2b molecules purified from L cells co-transfected with HLA-DRA and HLA-DRB1*1501 (human); assay: competitive ELISA (DELFIA) on purified HLA-DR2b, displacement of biotinylated CLIP 97-120
T1 construct: also called purified DR2b molecules
Description: DR2b molecules were purified from L cells that had been co-transfected with HLA-DRA and HLA-DRB1*1501, by affinity chromatography using the HLA-DR-specific L243 antibody, as described in Weissert et al. (2001), MHC class II-regulated central nervous system autoaggression and T cell responses in peripheral lymphoid tissues are dissociated in myelin oligodendrocyte glycoprotein-induced experimental autoimmune encephalomyelitits, J. Immunol. […] The above publication is incorporated into the present application by reference. The binding assays were performed with a competitive ELISA based on a dissociation-enhanced lanthanide fluoroimmunoassay (Wallac, Turku, Finland). For the competitive ELISA, a 50 nM solution of DR2b molecules was incubated for 48 hours at 37° C. with 50 nM biotinylated CLIP 97-120 in the presence of 250 nM acetylated nonapeptide amide sublibrary or with various concentrations of competitor peptides ranging from 1 nM to 100 μM.
The affinity of each of these peptides for the HLA-DR2b molecule was measured using the ELISA.

IC50	Binder
< 1 nM	Ac-DIYWYSSWP-NH2 (acetylated nonapeptide amide) [HuPb32]
1 nM	Ac-MIDWYSSWP-NH2 (acetylated nonapeptide amide) [HuPb34]
< 1 nM	Ac-MLIYYSSYL-NH2 (acetylated nonapeptide amide; also called HuPb28 peptide) [HuPb28]
46700 nM	Ac-GPLPEHELL-NH2 (acetylated nonapeptide amide) [HuPb15]
< 1 nM	Ac-LLYWYSSWP-NH2 (acetylated nonapeptide amide) [HuPb27]
> 100000 nM	Ac-GPPERLEFR-NH2 (acetylated nonapeptide amide) [HuPb19]
43800 nM	Ac-GSLPRHLFR-NH2 (acetylated nonapeptide amide) [HuPb18]
2 nM	Ac-FILIYSNLF-NH2 (acetylated nonapeptide amide) [HuPb29]
1 nM	Ac-MIYWYSSWL-NH2 (acetylated nonapeptide amide) [HuPb20]
< 1 nM	Ac-MIYWYNSWL-NH2 (acetylated nonapeptide amide) [HuPb31]
2 nM	Ac-LIYWYSSWL-NH2 (acetylated nonapeptide amide) [HuPb22]
1 nM	Ac-MIYWYSSWD-NH2 (acetylated nonapeptide amide) [HuPb33]
1 nM	Ac-LILWYSSWP-NH2 (acetylated nonapeptide amide) [HuPb26]
1 nM	Ac-MIYWYSSWI-NH2 (acetylated nonapeptide amide) [HuPb21]
2 nM	Ac-LILWYSSWL-NH2 (acetylated nonapeptide amide) [HuPb24]
< 1 nM	Ac-MIYWYSNWL-NH2 (acetylated nonapeptide amide) [HuPb30]
154 nM	Ac-LILYYYYYL-NH2 (acetylated nonapeptide amide) [HuPb23]
> 100000 nM	Ac-PYEAQELHE-NH2 (acetylated nonapeptide amide) [HuPb14]
> 100000 nM	Ac-WGLPEHLER-NH2 (acetylated nonapeptide amide) [HuPb11]
> 100000 nM	Ac-KGESGFRDR-NH2 (acetylated nonapeptide amide) [HuPb17]
33900 nM	Ac-WPLPLLEER-NH2 (acetylated nonapeptide amide) [HuPb10]
